Reference: publication PMC8358021 (2021)

Biological target: T1, AbApeO-AbApeC heterodimer (ketosynthase-chain length factor complex of the aryl polyene biosynthesis gene … (Acinetobacter baumannii))
T1 chain 1: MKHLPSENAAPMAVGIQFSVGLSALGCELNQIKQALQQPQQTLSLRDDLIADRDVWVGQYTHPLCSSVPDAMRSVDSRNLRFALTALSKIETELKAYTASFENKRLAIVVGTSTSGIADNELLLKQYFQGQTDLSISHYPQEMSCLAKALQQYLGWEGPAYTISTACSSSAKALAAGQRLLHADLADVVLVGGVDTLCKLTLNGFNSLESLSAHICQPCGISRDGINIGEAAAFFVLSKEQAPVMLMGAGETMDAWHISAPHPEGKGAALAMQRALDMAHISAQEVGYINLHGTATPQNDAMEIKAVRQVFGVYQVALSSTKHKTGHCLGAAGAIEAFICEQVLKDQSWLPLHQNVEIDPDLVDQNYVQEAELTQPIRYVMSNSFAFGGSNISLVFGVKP
T1 chain 2: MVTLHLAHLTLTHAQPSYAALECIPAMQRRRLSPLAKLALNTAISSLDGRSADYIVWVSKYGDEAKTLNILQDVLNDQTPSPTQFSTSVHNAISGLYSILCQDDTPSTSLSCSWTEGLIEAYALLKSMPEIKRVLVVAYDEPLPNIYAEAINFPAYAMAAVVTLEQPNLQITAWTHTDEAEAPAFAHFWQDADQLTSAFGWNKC
Assay: ITC

B1: holo ACP2 (ApeF), acyl carrier protein 2 of the A. baumannii APE gene cluster (natural protein)
chain: MSNLADELKQMIIDVLALEDITIADIDTEAPLFGEGLGLDSIDALELGLALKKRYNIHLNAESDETKQHFKSIQSLVALVEAQQKS
modifications: 4'-phosphopantetheine (holo form)
B1 showed a Kd of 42.7 µM.
